Test results published in publication PMC1906764.

T1: PPT1 F85del, P50897
T1 chain: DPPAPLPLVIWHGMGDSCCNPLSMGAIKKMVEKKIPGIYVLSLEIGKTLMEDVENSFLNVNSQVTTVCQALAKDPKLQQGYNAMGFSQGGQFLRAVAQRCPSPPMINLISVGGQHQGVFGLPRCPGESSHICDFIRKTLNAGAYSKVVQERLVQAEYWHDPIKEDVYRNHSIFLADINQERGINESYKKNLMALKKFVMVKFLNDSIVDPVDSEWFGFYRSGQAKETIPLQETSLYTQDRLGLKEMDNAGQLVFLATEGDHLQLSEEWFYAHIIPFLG


Key:
PPT1 F85del, P50897 = biological target: T1, PPT1 F85del, P50897; assay: GFP pull-down (co-immunoprecipitation with anti-GFP-agarose beads, anti-PPT1 immunoblot, quantified); conditions: chain shown with the change; COS-1 cells, lysed 48 h post-transfection; single experiment; parent: est. 100; read off a plot
[1] = 4-MU-6S-Palm-βGlc fluorometric assay, COS-1 lysates; conditions: glycan lost; control: wild type
[2] = 35S-Cys pulse-chase, immunoprecipitation from COS-1 media; conditions: glycan lost; control: wild type
[3] = immunofluorescence, LAMP-1 co-staining, transfected cells; conditions: glycan lost; control: wild type

Binder | percent of parent (PPT1 F85del, P50897) | enzymatic activity, percent of wt [1] | expression_or_secretion [2] | localisation_or_trafficking [3] | enzymatic_activity, percent_of_wt [1]
palmitoyl protein thioesterase 1 (PPT1), wild type, P50897 F85del (protein) DPPAPLPLVIWHGMGDSCCNPLSMGAIKKMVEKKIPGIYVLSLEIGKTLMEDVENSFLNVNSQVTTVCQALAKDPKLQQGYNAMGFSQGGQFLRAVAQRCPSPPMINLISVGGQHQGVFGLPRCPGESSHICDFIRKTLNAGAYSKVVQERLVQAEYWHDPIKEDVYRNHSIFLADINQERGINESYKKNLMALKKFVMVKFLNDSIVDPVDSEWFGFYRSGQAKETIPLQETSLYTQDRLGLKEMDNAGQLVFLATEGDHLQLSEEWFYAHIIPFLG | 150 % of WT | – | – | – | –
palmitoyl protein thioesterase 1 (PPT1): S214A (protein) parent chain: MASPGCLWLLAVALLPWTCASRALQHLDPPAPLPLVIWHGMGDSCCNPLSMGAIKKMVEKKIPGIYVLSLEIGKTLMEDVENSFFLNVNSQVTTVCQALAKDPKLQQGYNAMGFSQGGQFLRAVAQRCPSPPMINLISVGGQHQGVFGLPRCPGESSHICDFIRKTLNAGAYSKVVQERLVQAEYWHDPIKEDVYRNHSIFLADINQERGINESYKKNLMALKKFVMVKFLNDSIVDPVDSEWFGFYRSGQAKETIPLQETSLYTQDRLGLKEMDNAGQLVFLATEGDHLQLSEEWFYAHIIPFLG | – | 31% | no change | no change | –
palmitoyl protein thioesterase 1 (PPT1): S234A (protein) parent chain: MASPGCLWLLAVALLPWTCASRALQHLDPPAPLPLVIWHGMGDSCCNPLSMGAIKKMVEKKIPGIYVLSLEIGKTLMEDVENSFFLNVNSQVTTVCQALAKDPKLQQGYNAMGFSQGGQFLRAVAQRCPSPPMINLISVGGQHQGVFGLPRCPGESSHICDFIRKTLNAGAYSKVVQERLVQAEYWHDPIKEDVYRNHSIFLADINQERGINESYKKNLMALKKFVMVKFLNDSIVDPVDSEWFGFYRSGQAKETIPLQETSLYTQDRLGLKEMDNAGQLVFLATEGDHLQLSEEWFYAHIIPFLG | – | – | decreases | decreases | –
palmitoyl protein thioesterase 1 (PPT1): S199A + S214A (protein) parent chain: MASPGCLWLLAVALLPWTCASRALQHLDPPAPLPLVIWHGMGDSCCNPLSMGAIKKMVEKKIPGIYVLSLEIGKTLMEDVENSFFLNVNSQVTTVCQALAKDPKLQQGYNAMGFSQGGQFLRAVAQRCPSPPMINLISVGGQHQGVFGLPRCPGESSHICDFIRKTLNAGAYSKVVQERLVQAEYWHDPIKEDVYRNHSIFLADINQERGINESYKKNLMALKKFVMVKFLNDSIVDPVDSEWFGFYRSGQAKETIPLQETSLYTQDRLGLKEMDNAGQLVFLATEGDHLQLSEEWFYAHIIPFLG | – | – | abolishes | – | decreases
palmitoyl protein thioesterase 1 (PPT1): S199A (protein) parent chain: MASPGCLWLLAVALLPWTCASRALQHLDPPAPLPLVIWHGMGDSCCNPLSMGAIKKMVEKKIPGIYVLSLEIGKTLMEDVENSFFLNVNSQVTTVCQALAKDPKLQQGYNAMGFSQGGQFLRAVAQRCPSPPMINLISVGGQHQGVFGLPRCPGESSHICDFIRKTLNAGAYSKVVQERLVQAEYWHDPIKEDVYRNHSIFLADINQERGINESYKKNLMALKKFVMVKFLNDSIVDPVDSEWFGFYRSGQAKETIPLQETSLYTQDRLGLKEMDNAGQLVFLATEGDHLQLSEEWFYAHIIPFLG | – | – | abolishes | decreases | –
